According to patent US20230272117A1 (published 2023):
One block for each binder: values may come before it.

Tests used:
[1] = target: T1, human ATP Binding Cassette Subfamily C Member 1 (ABCC1) (UniProt P33527 1-1531); experiment: FACS titration on C6 cells
[2] = target: T1, human ATP Binding Cassette Subfamily C …; experiment: FACS titration on C6 cells; remark: listed apart in the source
[3] = target: T1, human ATP Binding Cassette Subfamily C …; experiment: FACS titration on H69AR cells
cynomolgus monkey ABCC1 [4] = target: T2, cynomolgus monkey ABCC1 (UniProt Q864R9 1-1531); experiment: FACS titration on C6 cells
cynomolgus monkey ABCC1 [5] = target: T2, cynomolgus monkey ABCC1; experiment: FACS cell binding
[6] = target: T1, human ATP Binding Cassette Subfamily C …; experiment: FACS cell binding
cynomolgus monkey ABCC1 [7] = target: T2, cynomolgus monkey ABCC1; experiment: FACS cell binding; remark: listed apart in the source
[8] = target: T1, human ATP Binding Cassette Subfamily C …; experiment: FACS cell binding; remark: listed apart in the source
cynomolgus monkey ABCC1 [9] = target: T2, cynomolgus monkey ABCC1; experiment: FACS titration on C6-cC1 cells; C6 cells
cynomolgus monkey ABCC1 [10] = target: T2, cynomolgus monkey ABCC1; experiment: FACS titration on C6-cC1 cells
[11] = target: T1, human ATP Binding Cassette Subfamily C …; experiment: FACS titration on C6-hC1 cells
cynomolgus monkey ABCC1 [12] = target: T2, cynomolgus monkey ABCC1; experiment: FACS titration on C6-cC1 cells; remark: listed apart in the source
[13] = target: T1, human ATP Binding Cassette Subfamily C …; experiment: FACS titration on C6-hC1 cells; remark: listed apart in the source
cynomolgus monkey ABCC1 [14] = target: T2, cynomolgus monkey ABCC1; experiment: FACS titration on C6 cells; C6 cells

T2 sequence (Q864R9 whole entry): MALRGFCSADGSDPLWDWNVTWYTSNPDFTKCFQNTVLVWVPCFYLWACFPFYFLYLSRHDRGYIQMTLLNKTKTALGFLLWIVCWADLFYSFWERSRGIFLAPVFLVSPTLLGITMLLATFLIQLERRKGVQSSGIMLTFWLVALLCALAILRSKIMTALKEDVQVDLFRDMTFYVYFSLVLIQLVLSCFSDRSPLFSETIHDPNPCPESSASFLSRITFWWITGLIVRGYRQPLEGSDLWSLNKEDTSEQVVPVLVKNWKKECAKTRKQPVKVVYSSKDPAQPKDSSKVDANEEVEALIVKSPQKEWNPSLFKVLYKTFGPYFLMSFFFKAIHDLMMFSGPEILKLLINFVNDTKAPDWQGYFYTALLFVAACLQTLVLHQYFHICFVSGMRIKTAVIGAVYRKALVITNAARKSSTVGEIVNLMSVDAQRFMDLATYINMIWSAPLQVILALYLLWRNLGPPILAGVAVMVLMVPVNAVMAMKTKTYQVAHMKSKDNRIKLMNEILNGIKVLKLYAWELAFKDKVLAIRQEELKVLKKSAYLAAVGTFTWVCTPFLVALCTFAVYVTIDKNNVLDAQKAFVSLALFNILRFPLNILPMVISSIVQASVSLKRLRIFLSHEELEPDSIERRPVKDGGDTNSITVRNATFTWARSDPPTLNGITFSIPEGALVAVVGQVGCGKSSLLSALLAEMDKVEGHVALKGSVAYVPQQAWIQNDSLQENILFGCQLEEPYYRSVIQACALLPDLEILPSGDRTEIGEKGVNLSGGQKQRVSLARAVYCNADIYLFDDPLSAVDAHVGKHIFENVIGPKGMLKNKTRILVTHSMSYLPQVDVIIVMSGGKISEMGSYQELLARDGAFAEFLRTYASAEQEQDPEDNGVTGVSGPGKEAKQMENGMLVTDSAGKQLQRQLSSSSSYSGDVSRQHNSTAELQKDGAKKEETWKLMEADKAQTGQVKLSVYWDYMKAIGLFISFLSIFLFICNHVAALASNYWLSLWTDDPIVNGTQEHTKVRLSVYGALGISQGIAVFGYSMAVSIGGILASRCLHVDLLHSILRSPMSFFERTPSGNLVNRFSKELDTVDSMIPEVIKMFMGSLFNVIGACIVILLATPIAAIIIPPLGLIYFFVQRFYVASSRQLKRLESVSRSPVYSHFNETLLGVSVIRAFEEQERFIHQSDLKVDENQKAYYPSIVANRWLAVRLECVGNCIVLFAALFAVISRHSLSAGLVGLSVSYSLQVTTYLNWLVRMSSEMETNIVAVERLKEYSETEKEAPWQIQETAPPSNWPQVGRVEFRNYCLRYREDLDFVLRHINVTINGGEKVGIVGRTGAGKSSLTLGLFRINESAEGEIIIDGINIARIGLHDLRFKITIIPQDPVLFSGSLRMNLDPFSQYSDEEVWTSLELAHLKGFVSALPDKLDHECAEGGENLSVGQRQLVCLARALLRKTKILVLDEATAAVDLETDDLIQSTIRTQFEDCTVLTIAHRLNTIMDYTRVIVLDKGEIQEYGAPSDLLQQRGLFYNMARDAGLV

Kd [1]: 81.2 nM | Kd [2]: 35.2 nM | Kd [3]: 7.1 nM
B1: C1.505 (antibody, V domains shown)
VH: EVQLTESGPGLVQPSQTLSLTCTVSGFSLTSNGVSWVRLPPGKGLEWIAAISSGGNIYYNSALKSRLSISRDTSKSQVFLKMNSLQTEDTAIYFCTRERGWNYPGITNGYYFDYWGQGASVTVSS
VL: DIVLTQSPSLLSASVGDRVILSCKAGQKINNYLAWYQQKLGEAPKLLIYNANSLQTGIPSRFSGSGSGTDYTLTISSLQPEDVATYFCQQYNSWYTFGAGTKLEIK

Kd (cynomolgus monkey ABCC1 [4]): 8.7 nM | Kd [2]: 11.4 nM
B2: C1.831 (antibody, V domains shown)
VH: EVQLTESGPGLVQPSQTLSLTCTVSGFSLTSNGVSWVRQPPGKGLEWIAAISSGGNIYYNSVLKSRLSISRDTSKSQVFLKMSSVQTEDTAIYFCTRERGWNYPFITNGYYFDYWGQGVMVTVSS
VL: EIMLTQSPSLLSASVGDRVTLSCKAGQNINNYLAWYQQKLGEAPKLLIYNANSLQTGIPSRFSGSGSGTDYTLTISSLQPEDVATYFCQQYNSWYTFGAGTKLEIK

Kd (cynomolgus monkey ABCC1 [5]): 210 nM | Kd [6]: 119 nM
B3: C1.851.hu15 (antibody, V domains shown)
VH: EVQLQESGPGLVKPSETLSLTCTVSGFSLTNNGVSWIRQPPGKGLEWIAAISSGGNIYYNSAFKSRLTISRDTSKNQVSLKLSSVTAADTAVYYCARHRGYYGYNWGYFDYWGQGTLVTVSS
VL: DVVMTQAPSSLSASLGERISLTCRASQDIYGSLNWFQQKPDGTIKLLIYGTSSLDSGVPKRFSGSRSGSDYSLTISSLESEDFADYYCLQYASSPYTFGGGTKLEIK

Kd (cynomolgus monkey ABCC1 [5]): 2030 nM | Kd [6]: 148 nM
B4: C1.851.hu14 (antibody, V domains shown)
VH: EVQLQESGPGLVKPSETLSLTCTVSGFSLTNNGVSWIRQPPGKGLEWIAAISSGGNIYYNSAFKSRLTISRDTSKNQVSLKLSSVTAADTAVYYCARHRGYYGYNWGYFDYWGQGTLVTVSS
VL: DVVMTQTPLSLPVSLGDQASISCRSSQSIVHSNGNTYLEWYLQKPGQSPKLLIYKVSNRFSGVPDRFSGSGTGTDFTLKISRVEAEDLGVYYCFQGSHVPRTFGGGTKLEIK

Kd (cynomolgus monkey ABCC1 [7]): 83 nM | Kd [8]: 103 nM
B5: C1.844.hu21 (antibody, V domains shown)
VH: EVQLVESGGGLIQPGGSLRLSCAVSGFSLTSNGVIWVRQPPGKGLEWIAAISSGGNIYYNSGLKSRLTISRDTSKNTVYLQMNSLRAEDTAVYYCTRARGTTTAYVMDAWGQGTLVTVSS
VL: DIVMTQSPDSLAVSLGERATINCKSSQSLLYSVNQKNYLAWYQQKPGQSPKLLIYWASTRQSGVPDRFSGSGSGTDFTLTISSLQAEDVAVYYCQQYYDTLMKMFGAGTKLELK
Kd (cynomolgus monkey ABCC1 [9]): 11 nM

Kd (cynomolgus monkey ABCC1 [7]): 64 nM | Kd [8]: 156 nM
B6: C1.861.hu41 (antibody, V domains shown)
VH: EVQLQESGPGLVKPSETLSLTCTVSGFSLTSSGVTWVRQPPGKGLEWIAAISSGGNIYYNSAVKSRLTISRDTSKNQVSLKLSSVTAADTAVYYCTRARGTTTAYVMDAWGQGTTVTVSS
VL: DVQLTQSPSSLSASVGDRVTITCKSSQSLLYSGNQKNYLAWYQQKPGKSPKLLIYWASTRQSGVPSRFSGSGSGTDFTLTISSLQPEDVATYYCQQYYDVLMNMFGGGTKLEIK

Kd (cynomolgus monkey ABCC1 [7]): 135 nM | Kd [8]: 218 nM
B7: C1.861.hu61 (antibody, V domains shown)
VH: EVQLVESGGGLIQPGGSLRLSCAVSGFSLTSSGVTWVRQPPGKGLEWIAAISSGGNIYYNSAVKSRLTISRDTSKNTVYLQMNSLRAEDTAVYFCTRARGTTTAYVMDAWGQGTTVTVSS
VL: DVQLTQSPSSLSASVGDRVTITCKSSQSLLYSGNQKNYLAWYQQKPGKSPKLLIYWASTRQSGVPSRFSGSGSGTDFTLTISSLQPEDVATYYCQQYYDVLMNMFGGGTKLEIK

Kd (cynomolgus monkey ABCC1 [7]): 37 nM | Kd [8]: 38 nM
B8: C1.861.hu21 (antibody, V domains shown)
VH: EVQLVESGGGLIQPGGSLRLSCAVSGFSLTSNGVTWVRQPPGKGLEWIAAISSGGNIYYNSAVKSRLTISRDTSKNTVYLQMNSLRAEDTAVYFCTRARGTTTAYVMDAWGQGTTVTVSS
VL: DVQLTQSPSSLSASVGDRVTITCKSSQSLLYSGNQKNYLAWYQQKPGKSPKLLIYWASTRQSGVPSRFSGSGSGTDFTLTISSLQPEDVATYYCQQYYDVLMNMFGGGTKLEIK
Kd (cynomolgus monkey ABCC1 [9]): 11 nM

Kd (cynomolgus monkey ABCC1 [7]): 20 nM | Kd [8]: 21 nM
B9: C1.831.hu41 (antibody, V domains shown)
VH: EVQLQESGPGLVKPSETLSLTCTVSGFSLTSQGVSWVRQPPGKGLEWIAAISSGGNIYYNSVLKSRLTISRDTSKNQVSLKLSSVTAADTAVYYCTRERGWNYPFITSGYYFDYWGQGTLVTVSS
VL: DIQLTQSPSSLSASVGDRVTITCKAGQNINNYLAWYQQKPGKAPKLLIYNANSLQTGIPSRFSGSGSGTDYTLTISSLQPEDFATYYCQQYNSWYTFGQGTKLEIK

Kd (cynomolgus monkey ABCC1 [7]): 27 nM | Kd [8]: 21 nM
B10: C1.831.hu11 (antibody, V domains shown)
VH: EVQLQESGPGLVKPSETLSLTCTVSGFSLTSNGVSWVRQPPGKGLEWIAAISSGGNIYYNSVLKSRLTISRDTSKNQVSLKLSSVTAADTAVYYCTRERGWNYPFITNGYYFDYWGQGTLVTVSS
VL: DIQLTQSPSSLSASVGDRVTITCKAGQNINNYLAWYQQKPGKAPKLLIYNANSLQTGIPSRFSGSGSGTDYTLTISSLQPEDFATYYCQQYNSWYTFGQGTKLEIK
Kd (cynomolgus monkey ABCC1 [9]): 11 nM

Kd (cynomolgus monkey ABCC1 [4]): 575 nM | Kd [2]: 144 nM
B11: C1.835 (antibody, V domains shown)
VH: EVQLLESGPGLVQPSQTLSLTCTVSGFSLTNNGVSWVRQPPGKGLEWVAAMSSGGNIYYNSAFKSRLSISRHTSKSQVLLKMNSLQTEDTAMYFCARHRGYYGYNWGYFDYWGQGVMVTVSS
VL: NIQLTQSPSLLSASVGDRVTLSCKGSQNIYNYLAWYQQKLGEAPKLLIYKTNSLQTDIPSRFSGSGSGTDYTLTISSLHSEDLATYYCCQYNNGYTFGAGTKLELK

Kd [11]: 11.7 nM
B12: C1.863 (antibody, V domains shown)
VH: EVQRKESGPGLVQPSQTLSLTCTVSGFSLTNNGVSWVRQPPGKGLEWIAAISSGGSIYYNSAFKSRLSISRITSKSQVLLKMNSLQTEDTAMYFCARHRGYYGYNWGYFDYWGQGVMVTVSS
VL: NIQMTQSPSLLSASVGDRVTLSCKGSQNIYNYLAWYQQKLGEAPKLLIYKTSSLQAGIPSRFSGSGSDTDYTLTISSLHSEDLATYYCCQYNNGYTFGAGTKLEIK
Kd (cynomolgus monkey ABCC1 [10]): 27.3 nM

Kd [3]: 4.3 nM | Kd [11]: 7.8 nM
B13: C1.787a (antibody, V domains shown)
VH: EVQLTESGPGLVQPSQTLSLTCTVSGFSLTSNGVSWVRQPPGKGLEWIAAISSGGSTYYNSAFKSRLSISRHTSKSQVLLNMNSLQTEDTAMYFCARHRGYYWSNWGYFDYWGQGVMVTVSS
VL: NIQLTQSPSLLSASVGDRVTLSCKGSQNINNYLAWYQQKLGEAPKLLIYKTNSLQTGIPSRFSGSGSGTDYTLTLSSLHSEDLATYYCCQYNDGYTFGAGTKLELK
Kd (cynomolgus monkey ABCC1 [10]): 27.6 nM

Kd (cynomolgus monkey ABCC1 [4]): 67.3 nM | Kd [2]: 134 nM
B14: C1.827 (antibody, V domains shown)
VH: EVQLVESGPGLVQPSQTLSLTCTVSGFSLTNNGVSWVRQPPGKGLEWIAAISNGGNIYHNSALKSRLSISRNTAKSQVLLKMNSLQTEDTAMYFCARHRGYYGYNWGYFDYWGQGASVTVSS
VL: NIQVTQSPSLLSASVGDRVTLSCKGSQNIYNYLAWYQQKLGEAPKLLIYKTNSLQTGIPSRFSGSGSGTDYTLTISSLHSEDLATYYCCQYNNGYTFGAGTKLELK

Kd [1]: 6.5 nM | Kd (cynomolgus monkey ABCC1 [4]): 2.7 nM | Kd [2]: 1.9 nM | Kd [3]: 2.5 nM | Kd [13]: 12.7 nM | Kd [11]: 3.7 nM | Kd (cynomolgus monkey ABCC1 [14]): 19.1 nM
B15: C1.773 (antibody, V domains shown)
VH: EIQLAQSGPELVKPGASVKMSCKASGYSFIGYFMNWVKQSHGKSLEWIGRINPYNGDTFYNQKFKGKATLTVDKSSSTAHMELRSLTSEDSALYYCTRSGWGYDVYSFDYWGQGTLVTVSS
VL: DIQMTQTPSSLSASLGDRVTISCRASQDISNYLNWYQQKPDGTVKLLIYYTSRLHSGVPSRFSGSGSGTDYSLTISNLEQEDIATYFCQQGNTLPWTFGGGTKLEIK
Kd (cynomolgus monkey ABCC1 [10]): 4.6 nM | Kd (cynomolgus monkey ABCC1 [12]): 5.9 nM | Kd (cynomolgus monkey ABCC1 [9]): 4 nM

Kd [11]: 14.7 nM | Kd (cynomolgus monkey ABCC1 [14]): 60.1 nM
B16: C1.861 (antibody, V domains shown)
VH: EVQLKESGPGLVQPSQTLSLTCTVSGFSLTSNGVTWVRQPPGKGLEWIAAISSGGNIYYNSAVKSRLSISRDTSKSQVFLKMNSLQTEDTAIYFCTRARGTTTAYVMDAWGQGASVTVSS
VL: DVVLTQSPSSLAVSAGETVTINCKSSQSLLYSGNQKNYLAWYQQKPGQSPKLLIYWASTRQSGVPDRFIGSGSGTDFTLTISSVQAEDLAIYYCQQYYDVLMNMFGAGTKLEIK
Kd (cynomolgus monkey ABCC1 [10]): 28 nM
